Assay results: PMC2138045
Where “and” joins values, the source holds several entries; their conditions need not be identical. Identical values can stand only once.

How the values were obtained:
[1] = target: His-tagged kelch BTBIVR (his:BTBIVR) (Drosophila); assay: SEC
[2] = target: His-tagged kelch BTB domain (his:BTB) (Drosophila); assay: dynamic light scattering
[3] = target: His-tagged kelch BTB domain (his:BTB) (Drosophila); assay: SEC

stoichiometry N [1] | stoichiometry N [2] | stoichiometry N [3] | Substance
2 |  |  | His-tagged kelch BTBIVR (his:BTBIVR) (domain or fragment)
 | 2 | 2 and 4 | His-tagged kelch BTB domain (his:BTB) (domain or fragment)
